Measured values as given in IntAct's records for PubMed 15150219.

B1: Nitrogen regulatory protein P-II (Synechococcus elongatus (strain PCC 7942)), P0A3F4 (parent)
chain: MKKIEAIIRPFKLDEVKIALVNAGIVGMTVSEVRGFGRQKGQTERYRGSEYTVEFLQKLKLEIVVEDAQVDTVIDKIVAAARTGEIGDGKIFVSPVDQTIRIRTGEKNADAI
partner: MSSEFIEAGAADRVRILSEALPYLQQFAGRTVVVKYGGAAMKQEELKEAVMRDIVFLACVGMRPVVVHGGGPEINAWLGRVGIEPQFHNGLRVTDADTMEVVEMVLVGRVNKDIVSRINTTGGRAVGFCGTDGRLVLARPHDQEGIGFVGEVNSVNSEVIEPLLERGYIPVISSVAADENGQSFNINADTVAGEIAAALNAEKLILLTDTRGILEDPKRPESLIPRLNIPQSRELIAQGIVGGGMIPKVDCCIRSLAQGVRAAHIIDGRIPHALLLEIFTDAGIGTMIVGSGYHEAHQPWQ

Variants of: B1
Settings: with argb_syne7 argB

| effect of a mutation on the interaction | Variant |
| --- | --- |
| decreasing interaction | S49E |
| decreasing interaction | S49A |
| decreasing interaction | S49D |
